In patent publication US20220403022A1 (Merck KGaA, published 2022):
Positions count from the first letter of the chain named. Several values for one entry are separate records, joined by “and”; a condition that tells them apart may be missing. Equal values may be shown once.

How the values were obtained:
[1] = molecular target: T1, human TIGIT on cells (primary T cells, transfected HEK293 cells, Jurkat reporter cells, NK cells) (human, UniProt Q495A1 22-244); assay: cell-based or functional assay
T1 sequence: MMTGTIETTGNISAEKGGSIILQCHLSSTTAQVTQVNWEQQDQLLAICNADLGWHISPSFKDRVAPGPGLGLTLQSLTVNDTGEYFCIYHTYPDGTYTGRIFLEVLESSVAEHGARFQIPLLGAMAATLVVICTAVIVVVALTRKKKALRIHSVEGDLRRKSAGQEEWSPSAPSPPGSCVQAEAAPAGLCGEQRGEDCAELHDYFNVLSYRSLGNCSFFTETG

[2] = molecular target: T1, human TIGIT on cells (primary T cells, …); assay: cell-based or functional assay; remark: listed apart in the source
[3] = molecular target: T2, human TIGIT ECD expressed on the CHO-S cell surface (human, UniProt Q495A1 22-141); assay: cell-based or functional assay
T2 sequence: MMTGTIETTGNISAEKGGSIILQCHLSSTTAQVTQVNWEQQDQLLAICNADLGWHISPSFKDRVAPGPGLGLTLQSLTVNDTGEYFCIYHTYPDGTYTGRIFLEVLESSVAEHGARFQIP

[4] = molecular target: T3, cynomolgus monkey TIGIT on primary T cells (cynomolgus monkey, UniProt A0A7N9I9V4 89-312); assay: flow cytometry on CD3+ T cells of cyno PBMCs
T3 construct: whole, on cells; also called cyno PBMCs; cynomolgus monkey spleen cells

[5] = molecular target: T1, human TIGIT on cells (primary T cells, …); assay: flow cytometry on CD3+ T cells of human PBMCs
[6] = molecular target: T1, human TIGIT on cells (primary T cells, …); assay: flow cytometry, live transfected HEK293 cells
[7] = molecular target: T4, human TIGIT ECD Q53A (human, UniProt Q495A1 22-141); assay: SPR, antibody captured, mutant TIGIT ECD injected
T4 construct: point mutant expressed in E. coli
T4 chain: T2 sequence with Q32A

[8] = molecular target: T5, human TIGIT ECD T55A (human, UniProt Q495A1 22-141); assay: SPR, antibody captured, mutant TIGIT ECD injected
T5 construct: point mutant expressed in E. coli
T5 chain: T2 sequence with T34A

[9] = molecular target: T6, human TIGIT ECD Y113A (human, UniProt Q495A1 22-141); assay: SPR, antibody captured, mutant TIGIT ECD injected
T6 construct: point mutant expressed in E. coli
T6 chain: T2 sequence with Y92A

[10] = molecular target: T7, human TIGIT ECD P114G (human, UniProt Q495A1 22-141); assay: SPR, antibody captured, mutant TIGIT ECD injected
T7 construct: point mutant expressed in E. coli
T7 chain: T2 sequence with P93G

[11] = molecular target: T8, His-tagged human TIGIT (human, UniProt Q495A1 22-141); assay: SPR Biacore, antibody captured on anti-human Fc, His-tagged TIGIT injected
T8 construct: soluble analyte in SPR
T8 sequence: T2 sequence

[12] = molecular target: T9, His-tagged cynomolgus monkey TIGIT (cynomolgus monkey, UniProt A0A7N9I9V4 89-209); assay: as above
T9 construct: also called Cyno TIGIT; cynomolgus monkey TIGIT (Novoprotein cat. No. CP02)

[13] = molecular target: T2, human TIGIT ECD expressed on the CHO-S …; assay: flow cytometry blocking assay on CHO-S-human TIGIT cells, competitor biotinylated human CD112-Fc 2 µg/mL
[14] = molecular target: T2, human TIGIT ECD expressed on the CHO-S …; assay: flow cytometry blocking assay on CHO-S-human TIGIT cells, competitor biotinylated human CD155-Fc 2 µg/mL
[15] = molecular target: T2, human TIGIT ECD expressed on the CHO-S …; assay: flow cytometry blocking assay on CHO-S-hTIGIT cells, competitor muCD112; competitor muCD112; human IgG 3963H03-12
[16] = molecular target: T2, human TIGIT ECD expressed on the CHO-S …; assay: flow cytometry blocking assay on CHO-S-hTIGIT cells, competitor muCD155-Fc; competitor muCD155-Fc; human IgG 3963H03-12
[17] = molecular target: T1, human TIGIT on cells (primary T cells, …); assay: target occupancy on CD3+ T cells in human whole blood, unoccupied TIGIT detected with biotinylated 3963H03-12, flow cytometry, 9 donors
[18] = molecular target: T3, cynomolgus monkey TIGIT on primary T …; assay: target occupancy on CD3+ T cells of cynomolgus monkey spleen cells, unoccupied TIGIT detected with biotinylated 3963H03-12, flow cytometry, 6 donors

T3 sequence (A0A7N9I9V4 entry or part of it): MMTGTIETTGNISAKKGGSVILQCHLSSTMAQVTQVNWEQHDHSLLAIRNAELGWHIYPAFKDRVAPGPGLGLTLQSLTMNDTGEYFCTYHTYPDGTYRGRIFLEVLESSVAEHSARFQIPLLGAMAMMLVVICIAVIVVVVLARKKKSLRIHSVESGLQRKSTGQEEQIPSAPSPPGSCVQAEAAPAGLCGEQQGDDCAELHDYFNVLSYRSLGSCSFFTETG
T9 sequence (A0A7N9I9V4 entry or part of it): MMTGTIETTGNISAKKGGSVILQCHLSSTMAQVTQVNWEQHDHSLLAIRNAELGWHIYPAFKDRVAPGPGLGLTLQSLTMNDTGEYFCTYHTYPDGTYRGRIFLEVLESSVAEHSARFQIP

EC50 [2]: 12.5 µg/mL
ADCC EC50, nM (Donor 1005-4464) [3]: 0.026 nM
ADCC EC50, nM (Donor 1102-7215) [3]: 0.1 nM
ADCC EC50, nM (Donor 1106-0557) [3]: 0.059 nM
EC50 [4]: 0.132 µg/mL and 0.8 nM
EC50 [5]: 0.0852 µg/mL and 0.6 nM
fold median fluorescence over vector-only transfected HEK293 cells [6]: 130 fold
binding result [7]: no binding (tested: 100 nM antigen)
binding result [8]: no binding (tested: 100 nM antigen)
binding result [9]: no binding (tested: 100 nM antigen)
binding result [10]: no binding (tested: 100 nM antigen)
Kd [11]: 4.05 nM
koff [11]: 0.00067 s⁻¹
kon [11]: 166000 M⁻¹ s⁻¹
Kd [12]: 0.829 nM and 0.83 nM
koff [12]: 0.000133 s⁻¹
kon [12]: 160000 M⁻¹ s⁻¹
IC50 [13]: 0.411 µg/mL and 2.8 nM
IC50 [14]: 0.165 µg/mL and 1.1 nM
IC50 [15]: 1.68 µg/mL
IC50 [16]: 0.499 µg/mL
EC50 [17]: 0.24 µg/mL and 1.6 nM
EC50 [18]: 0.0927 µg/mL and 0.6 nM
B1: 3963H03-12 (antibody, human IgG1, kappa, V domains shown)
VH: QVQLVQSGSELKKPGASVKVSCKASGYTFTSYPMNWVRQAPGQGLEWMGWINTNTGNPTYAQGFTGRFVFSLDTSVSTAYLQISSLKAEDTAVYYCARVGGYSVDEYAFDVWGQGTLVTVSS
VL: DIQLTQSPSFLSASVGDRVTITCRASQGISSYLAWYQQKPGKAPKLLIYAASTLQSGVPSRFSGSGSGTEFTLTISSLQPEDFATYYCQQLSSYPTFGGGTKVEIKR
notes: also called anti-TIGIT H03-12; 39631H03-12
NK-mediated killing of P815.hCD155 cells (Caspase-3/7 signal) [1]: ≤ 2 fold
